Here are results for 11 molecules from article PMC7498314, “Microcephaly family protein MCPH1 stabilizes RAD51 filaments” (Nucleic Acids Research, 2020).

B4: Strep-tagged mouse RAD51 (natural protein, UniProt Q08297 1-339, looked up)
chain: MAMQMQLEASADTSVEEESFGPQPISRLEQCGINANDVKKLEEAGYHTVEAVAYAPKKELINIKGISEAKADKILTEAAKLVPMGFTTATEFHQRRSEIIQITTGSKELDKLLQGGIETGSITEMFGEFRTGKTQICHTLAVTCQLPIDRGGGEGKAMYIDTEGTFRPERLLAVAERYGLSGSDVLDNVAYARGFNTDHQTQLLYQASAMMVESRYALLIVDSATALYRTDYSGRGELSARQMHLARFLRMLLRLADEFGVAVVITNQVVAQVDGAAMFAADPKKPIGGNIIAHASTTRLYLRKGRGETRICKIYDSPCLPEAEAMFAINADGVGDAKD
notes: mouse RAD51 recombinase; (His)6-tagged mouse RAD51 was used in the Benzonase protection and TPM assays; also called RAD51 recombinase
B10: Strep-tagged mouse DMC1 (natural protein, UniProt Q61880 1-340, looked up)
chain: MKEDQVVQEESGFQDDEESLFQDIDLLQKHGINMADIKKLKSVGICTIKGIQMTTRRALCNVKGLSEAKVEKIKEAANKLIEPGFLTAFQYSERRKMVFHITTGSQEFDKLLGGGIESMAITEAFGEFRTGKTQLSHTLCVTAQLPGTGGYSGGKIIFIDTENTFRPDRLRDIADRFNVDHEAVLDNVLYARAYTSEHQMELLDYVAAKFHEEAGIFKLLIIDSIMALFRVDFSGRGELAERQQKLAQMLSRLQKISEEYNVAVFVTNQMTADPGATMTFQADPKKPIGGHILAHASTTRISLRKGRGELRIAKIYDSPEMPENEATFAITAGGIGDAKE
notes: mouse DMC1, the meiotic RAD51 homolog; (His)6-tagged mouse DMC1 was used in the Benzonase protection assay; also called meiotic recombinase DMC1

In data set [1] the target is T1, MCPH1 (tag-free) (Mus musculus, UniProt Q7TT79 1-822).
T1 sequence: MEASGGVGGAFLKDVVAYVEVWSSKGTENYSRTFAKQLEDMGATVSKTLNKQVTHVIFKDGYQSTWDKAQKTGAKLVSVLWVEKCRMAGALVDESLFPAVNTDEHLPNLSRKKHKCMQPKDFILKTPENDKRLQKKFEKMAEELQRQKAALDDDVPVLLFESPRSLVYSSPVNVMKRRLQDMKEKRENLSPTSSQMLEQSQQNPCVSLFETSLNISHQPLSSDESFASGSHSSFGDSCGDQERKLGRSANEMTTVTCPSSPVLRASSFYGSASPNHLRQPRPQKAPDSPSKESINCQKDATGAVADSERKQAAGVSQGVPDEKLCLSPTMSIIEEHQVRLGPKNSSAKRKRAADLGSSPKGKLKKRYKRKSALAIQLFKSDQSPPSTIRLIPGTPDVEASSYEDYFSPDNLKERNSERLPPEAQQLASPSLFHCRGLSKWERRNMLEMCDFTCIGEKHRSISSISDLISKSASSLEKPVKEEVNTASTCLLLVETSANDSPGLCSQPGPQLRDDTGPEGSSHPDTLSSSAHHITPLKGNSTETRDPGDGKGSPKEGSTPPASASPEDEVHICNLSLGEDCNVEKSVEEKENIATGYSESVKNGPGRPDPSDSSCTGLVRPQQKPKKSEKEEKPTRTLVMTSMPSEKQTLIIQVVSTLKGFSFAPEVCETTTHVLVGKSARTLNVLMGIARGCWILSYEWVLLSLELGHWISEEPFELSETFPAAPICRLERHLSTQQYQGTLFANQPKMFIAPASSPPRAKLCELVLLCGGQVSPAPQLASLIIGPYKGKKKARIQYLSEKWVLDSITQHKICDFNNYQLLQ
The data set is described as follows: EMSA; 50 mM KCl; EMSA: 35 mM Tris-HCl pH 7.5, 1 mM DTT, 50 mM KCl, 0.1 ug/ul BSA, 37 C, 5 min; DNA 750 nM (oligos) or 6 uM (PhiX174) nucleotides/bp. TPM: 100 mM KCl (150 mM high salt). Conditions: protein: recombinant, tags: none (His6-MBP removed with PreScission).

Data set [2] addresses T2, (His)6-MBP-tagged mouse MCPH1 (Microcephalin 1) (mouse, UniProt Q7TT79 1-822).
T2 construct: mouse MCPH1 (microcephalin 1), wild type, cDNA NM_173189.2; calculated molecular mass of the untagged protein 90,372 Da; A PreScission protease site lies between the (His)6-MBP tag and MCPH1; the uncleaved, tagged protein was used in the pull-downs; Tag-free MCPH1 (tag cleaved) was used in the Benzonase protection and TPM assays; also called (His)6-MBP-MCPH1; wild-type MCPH1; source: Expi293F …
T2 sequence (looked up): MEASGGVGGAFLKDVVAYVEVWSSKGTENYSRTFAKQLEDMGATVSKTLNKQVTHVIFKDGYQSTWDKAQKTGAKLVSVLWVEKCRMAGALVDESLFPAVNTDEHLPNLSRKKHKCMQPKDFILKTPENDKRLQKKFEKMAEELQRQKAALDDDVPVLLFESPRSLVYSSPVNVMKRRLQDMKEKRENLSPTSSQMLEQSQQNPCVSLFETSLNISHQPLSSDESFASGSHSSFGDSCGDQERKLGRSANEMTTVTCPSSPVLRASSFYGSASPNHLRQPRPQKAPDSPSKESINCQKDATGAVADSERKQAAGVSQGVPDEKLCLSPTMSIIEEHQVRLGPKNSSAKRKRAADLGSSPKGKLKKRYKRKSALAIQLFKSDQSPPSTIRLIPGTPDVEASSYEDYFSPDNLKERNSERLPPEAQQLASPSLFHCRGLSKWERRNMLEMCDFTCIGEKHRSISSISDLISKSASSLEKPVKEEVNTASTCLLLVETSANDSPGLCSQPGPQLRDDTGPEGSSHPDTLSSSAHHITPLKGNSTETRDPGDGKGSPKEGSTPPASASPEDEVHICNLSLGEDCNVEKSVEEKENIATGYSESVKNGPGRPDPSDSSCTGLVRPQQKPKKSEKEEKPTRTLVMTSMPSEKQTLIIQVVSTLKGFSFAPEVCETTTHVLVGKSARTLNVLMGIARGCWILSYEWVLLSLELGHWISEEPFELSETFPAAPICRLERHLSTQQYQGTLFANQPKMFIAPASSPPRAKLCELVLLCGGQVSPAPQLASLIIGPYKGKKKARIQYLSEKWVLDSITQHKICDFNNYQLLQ
Nature of the data set: pull-down; (His)6-MBP-MCPH1 (4 μg) incubated with recombinase (1 μg) in 30 μl buffer D (25 mM Tris-HCl pH 7.5, 10% glycerol, 0.01% Igepal, 100 mM KCl, 10 mM imidazole) 30 min at 37°C with Benzonase and 2 mM MgCl2; captured on Talon resin via the (His)6 tag; SDS-PAGE with Coomassie Blue staining. Conditions: both partners purified.

For data set [3], the target named is B4. The data set is described as follows: pull-down; (His)6-SUMO-tagged MCPH1 fragments (2 μg) with Strep-tagged RAD51 or DMC1 (2 μg), same procedure (buffer D, Benzonase, Talon resin); SDS-PAGE and western blot with RAD51 or DMC1 antibody. Conditions: both partners purified. (A western blot detects proteins with antibodies after separation by electrophoresis.)

The target of data set [4] is B10. The data set is described as above. Conditions: both partners purified.

B1: dsDNA (Oligo 5+9) (dsDNA)
DNA 1: ACGCTGCCGAATTCTACCAGTGCCTTGCTAGGACATCTTTGCCCACCTGCAGGTTCACCC
DNA 2: GGGTGAACCTGCAGGTGGGCAAAGATGTCCTAGCAAGGCACTGGTAGAATTCGGCAGCGT
In the case of B1, the binding result in data set [1] (label: 5'-32P on Oligo 5, blunt) is “binds”.

B2: 3'-overhang DNA (Oligo 5+10) (mixed)
DNA 1: ACGCTGCCGAATTCTACCAGTGCCTTGCTAGGACATCTTTGCCCACCTGCAGGTTCACCC
DNA 2: AGGCACTGGTAGAATTCGGCAGCGT
Consider B2, for which the binding result in data set [1] (label: 5'-32P on Oligo 5, 3' overhang 35 nt) was “binds”.

B3: Holliday junction (Oligo 5+6+7+8) (structured_DNA)
DNA 1: ACGCTGCCGAATTCTACCAGTGCCTTGCTAGGACATCTTTGCCCACCTGCAGGTTCACCC
DNA 2: GGGTGAACCTGCAGGTGGGCAAAGATGTCCATCTGTTGTAATCGTCAAGCTTTATGCCGT
DNA 3: ACGGCATAAAGCTTGACGATTACAACAGATCATGGAGCTGTCTAGAGGATCCGACTATCG
DNA 4: CGATAGTCGGATCCTCTAGACAGCTCCATGTAGCAAGGCACTGGTAGAATTCGGCAGCGT
B3: the binding result in data set [1] (label: 5'-32P on Oligo 5, four-way junction 1:2 2:3 3:4 4:1) is given as “binds”. As for B4, the binding result in data set [2] was “binds”.

B5: (His)6-SUMO-tagged mouse MCPH1 fragment, amino acids 287-383 (central region containing the nuclear localization signal) (domain or fragment, UniProt Q7TT79 287-383, looked up)
chain: DSPSKESINCQKDATGAVADSERKQAAGVSQGVPDEKLCLSPTMSIIEEHQVRLGPKNSSAKRKRAADLGSSPKGKLKKRYKRKSALAIQLFKSDQS
notes: mouse MCPH1, residues 287-383, containing the nuclear localization signal; also called truncated MCPH1 variant; source: E. coli BL21*(DE3)(pLys), purified (Ni-NTA); not shown: His6, N-terminal, kept; SUMO, N-terminal, kept
Turning to B5, the binding result in data set [3] and in data set [4] was “binds” throughout.

B6: Oligo 3 ssDNA (ssDNA)
DNA: GCCGTCGCATGACGCTGCCGAATTCTACCACGCTACTAGGGTGCCTTGCTAGGACATCTTTGCCCACCTGCAGGTTCACCCCGTCCCTGGC
For the molecule B6, in data set [1] (label: 5'-32P, single strand), the binding result is “binds”.

B7: D-loop (Oligo 2+3+4) (mixed)
DNA 1: GCCGTCGCATGACGCTGCCGAATTCTACCACGCTACTAGGGTGCCTTGCTAGGACATCTTTGCCCACCTGCAGGTTCACCCCGTCCCTGGC
DNA 2: GCCAGGGACGGGGTGAACCTGCAGGTGGGCGGCTGCTCATCGTAGGTTAGTATCGACCTATTGGTAGAATTCGGCAGCGTCATGCGACGGC
DNA 3: AAGATGTCCTAGCAAGGCACCCTAGTAGC
On to B7, for which, in data set [1] (label: 5'-32P on Oligo 3, D-loop, Oligo 2 and 3 pair at both ends, Oligo 4 pairs in the bubble of Oligo 3), the binding result is “binds”.

B8: (His)6-SUMO-tagged mouse MCPH1 fragment, amino acids 628-822 (C-terminus, containing BRCT2 and BRCT3) (domain or fragment, UniProt Q7TT79 628-822, looked up)
chain: EKEEKPTRTLVMTSMPSEKQTLIIQVVSTLKGFSFAPEVCETTTHVLVGKSARTLNVLMGIARGCWILSYEWVLLSLELGHWISEEPFELSETFPAAPICRLERHLSTQQYQGTLFANQPKMFIAPASSPPRAKLCELVLLCGGQVSPAPQLASLIIGPYKGKKKARIQYLSEKWVLDSITQHKICDFNNYQLLQ
notes: mouse MCPH1, residues 628-822, containing BRCT2 and BRCT3; also called truncated MCPH1 variant; source: E. coli BL21*(DE3)(pLys), purified (Ni-NTA); not shown: His6, N-terminal, kept; SUMO, N-terminal, kept
As to B8, the binding result in data set [3] and in data set [4] was “binds” each time.

B9: (His)6-SUMO-tagged mouse MCPH1 fragment, amino acids 1-190 (N-terminus, containing BRCT1) (domain or fragment, UniProt Q7TT79 1-190, looked up)
chain: MEASGGVGGAFLKDVVAYVEVWSSKGTENYSRTFAKQLEDMGATVSKTLNKQVTHVIFKDGYQSTWDKAQKTGAKLVSVLWVEKCRMAGALVDESLFPAVNTDEHLPNLSRKKHKCMQPKDFILKTPENDKRLQKKFEKMAEELQRQKAALDDDVPVLLFESPRSLVYSSPVNVMKRRLQDMKEKRENLS
notes: mouse MCPH1, residues 1-190, containing BRCT1; also called truncated MCPH1 variant; source: E. coli BL21*(DE3)(pLys), purified (Ni-NTA); not shown: His6, N-terminal, kept; SUMO, N-terminal, kept
Turning to B9, the binding result in data set [3] and in data set [4] was “binds” each time. Consider B10, for which, in data set [2], the binding result is on record as “binds”.

B11: (His)6-SUMO-tagged mouse MCPH1 fragment, amino acids 384-476 (central region containing a Condensin-II binding region) (domain or fragment, UniProt Q7TT79 384-476, looked up)
chain: PPSTIRLIPGTPDVEASSYEDYFSPDNLKERNSERLPPEAQQLASPSLFHCRGLSKWERRNMLEMCDFTCIGEKHRSISSISDLISKSASSLE
notes: also called truncated MCPH1 variant; source: E. coli BL21*(DE3)(pLys), purified (Ni-NTA); not shown: His6, N-terminal, kept; SUMO, N-terminal, kept
Turning to B11, the binding result in data set [3] and in data set [4] was “binds” throughout.
